Consider 1 molecule from patent publication US20210380664A1 (AICURIS ANTI INFECTIVE CURES, published 2021).

This experiment deals with HCMV virus particles, strain TB40/E. Kind of experiment: cell-based or functional assay.

Take GRHIYIYVPDPDVAFVPLGMTDYLVIVEDDDSAIIPCRTT [PDGFR-alpha derived 40mer peptide GT40]: the “EC50 of inhibition of infection of HFFs by peptide” value is 2 µM.
